Reference: publication PMC9445664, “A transcription factor TaMYB5 modulates leaf rolling in wheat”

B1: 3xAC probe (AC box of TaNRL1 promoter) (dsDNA)
DNA 1: AGTCCACCTAACGCCACCTAACGCCACCTAACGCTGTT
DNA 2: AACAGCGTTAGGTGGCGTTAGGTGGCGTTAGGTGGACT
B2: mutant 3xAC probe (dsDNA)
DNA 1: AGTCCAAATATTGCCAAATATTGCCAAATATTGCTGTT
DNA 2: AACAGCAATATTTGGCAATATTTGGCAATATTTGGACT

Tests used:
TaMYB5 (GST-TaMYB5) [1] = target: T1, TaMYB5 (GST-TaMYB5) (Triticum aestivum, UniProt A0A3B6ELG7 1-265); assay: EMSA; unlabeled N1 competes; LightShift Chemiluminescent EMSA Kit (Thermo); buffer, salt, pH and temperature not stated; conditions: protein: recombinant; tags: N-terminal GST; label: biotin (labeled probe); blunt
T1 sequence (A0A3B6ELG7 entry or part of it): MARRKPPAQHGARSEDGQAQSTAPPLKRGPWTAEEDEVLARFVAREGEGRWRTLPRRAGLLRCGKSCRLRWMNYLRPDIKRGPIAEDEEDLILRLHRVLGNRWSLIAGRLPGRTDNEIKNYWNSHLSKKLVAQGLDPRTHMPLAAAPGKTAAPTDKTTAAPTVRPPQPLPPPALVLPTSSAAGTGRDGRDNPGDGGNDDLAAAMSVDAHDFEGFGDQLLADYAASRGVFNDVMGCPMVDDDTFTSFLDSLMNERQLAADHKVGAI

TaMYB5 (GST-TaMYB5) [2] = target: T1, TaMYB5 (GST-TaMYB5); assay: competition; EMSA; unlabeled mutant probe against biotin-labeled N1; LightShift Chemiluminescent EMSA Kit (Thermo); buffer, salt, pH and temperature not stated; conditions: protein: recombinant; tags: N-terminal GST; blunt

Binder	binding result (TaMYB5 (GST-TaMYB5) [1])	binding result (TaMYB5 (GST-TaMYB5) [2])
B1	binds	–
B2	–	no binding
